Measurements from US6759384 (AVENTIS PHARMACEUTICALS, dated 2004).
Like-named read-outs stand apart in the source and are kept apart here. Starred links: 1 amine or outer side, 2 acyl side, 3 side chain; linkers in the order of their positions; H or OH if unused. Non-standard residues stand in square brackets, D forms with d. No end group written: not given here. *: point of attachment. (iBu)Phe(4-CN) = N-isobutyl-4-cyano-L-phenylalanine, CC(C)CN([C@@H](Cc1ccc(C#N)cc1)C(=O)[*:2])[*:1]; Phe(3-I,4-NH2) = 4-amino-3-iodo-L-phenylalanine, O=C([C@H](Cc1ccc(N[*:3])c(I)c1)N[*:1])[*:2]; dpAph = D-4-amidinophenylalanine, N=C(N)c1ccc(C[C@@H](N[*:1])C(=O)[*:2])cc1; 2‑pyridonyl = 2-pyridonyl N-terminal group; Phe(4-NH2) = Nc1ccc(C[C@H](N)C(=O)O)cc1; 2‑naphthylmethyl = c1ccc2cc(C*)ccc2c1; Quinaldoyl = O=C(c1ccc2ccccc2n1)*; NMeL = CN[C@@H](CC(C)C)C(=O)O; Chg = N[C@H](C(=O)O)C1CCCCC1; Nicotinoyl = O=C(c1cccnc1)*; Bz = O=C(c1ccccc1)*

Assays:
[1] = target: T1, human factor Xa (Enzyme Research Laboratories, Inc.) (human, UniProt P00742 41-179; P00742 235-488, limits assumed); assay: chromogenic FXa inhibition
T1 sequence (P00742 41-179 limits assumed, chain 1 of 2): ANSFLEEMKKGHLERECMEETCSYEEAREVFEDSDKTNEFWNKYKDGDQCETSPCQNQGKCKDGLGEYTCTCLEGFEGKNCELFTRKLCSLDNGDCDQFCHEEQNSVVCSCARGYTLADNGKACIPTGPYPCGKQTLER
T1 sequence (P00742 235-488 limits assumed, chain 2 of 2): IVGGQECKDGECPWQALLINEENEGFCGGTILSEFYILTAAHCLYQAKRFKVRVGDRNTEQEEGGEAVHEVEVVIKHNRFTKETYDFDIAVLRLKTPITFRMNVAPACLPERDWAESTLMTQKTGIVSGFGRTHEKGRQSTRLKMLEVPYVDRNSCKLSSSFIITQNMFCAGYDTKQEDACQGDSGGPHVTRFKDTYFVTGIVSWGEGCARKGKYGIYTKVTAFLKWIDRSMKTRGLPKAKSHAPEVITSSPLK
Procedure: TBS-P buffer (50 mM Tris-Cl, pH 7.8, 200 mM NaCl, 0.05% (w/v) PEG-8000, 0.02% (w/v) NaN_3) was used for this assay. The IC$50$ was determined by combining in appropriate wells of a Costar half-area microtiter plate 25 μl human factor Xa (Enzyme Research Laboratories, Inc.; South Bend Ind.) in TBS-P; 40 μl 10% (v/v) DMSO in TBS-P (uninhibited control) or various concentrations of a peptide to be tested diluted in 10% (v/v) DMSO in TBS-P; and substrate S-2765 (Nα-benzyloxycarbonyl-D-Arg-Gly-L-Arg-p-nitroanilide; Kabi Pharmacia, Inc.; Franklin Ohio) in TBS-P.
The assays were performed by pre-incubating the peptide inhibitor plus enzyme for 10 min, then the assay was initiated by adding substrate to obtain a final volume of 100 μl. The initial velocity of chromogenic substrate hydrolysis was measured by the change in absorbance at 405 nm using a Bio-tek Instruments kinetic plate reader (Ceres UV900HDi) at 25° C. during the linear portion of the time course (usually 1–5 min after addition of substrate). The concentration of inhibitor that caused a 50% decrease in the rate of substrate hydrolysis was predicted by linear regression after plotting the relative rates of hydrolysis (compared to the uninhibited control) versus the log of the peptide concentration. The enzyme concentration was 0.5 nM and substrate concentration was 140 μM.

[2] = target: T1, human factor Xa (Enzyme Research …); assay: chromogenic FXa inhibition; remark: listed apart in the source
In short: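 Human FXa (0.5 nM) preincubated 10 min with inhibitor in TBS-P (pH 7.8, 200 mM NaCl, PEG-8000), then S-2765 added (140 μM). Initial hydrolysis rate read at 405 nm, 25° C.; IC50 by linear regression of relative rate vs log concentration.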

{2‑naphthylsulfonyl}-[Phe(4-NH2)][Chg]RLP-NH2 [(2-naphthylsulfonyl)-Phe(pNH2)-Chg-Arg-Leu-Pro-NH2]
Ki [1]: < 100 µM

XIRLP (N-term Ac; N-(Et-CH═C(CH3)-CH2) on Y1; Y1=Y(SO3H); C-term NH2) [Ac-(Et-CH═C(CH3)-CH2)Y(SO3H)-I-R-L-P-NH2]
Ki [2]: < 100 µM

B1: Ac-Phe(3I,4NH2)-Chg-Arg-Leu-Pro-NH2 (peptide)
peptide: Ac-[Phe(3-I,4-NH2)][Chg]RLP-NH2
SMILES: CC(=O)N[C@@H](Cc1ccc(N)c(I)c1)C(=O)N[C@H](C(=O)N[C@@H](CCCNC(=N)N)C(=O)N[C@@H](CC(C)C)C(=O)N1CCC[C@H]1C(N)=O)C1CCCCC1
Ki [1]: < 100 µM

B2: (3-pyridoyl)-Phe(pNH2)-Chg-Arg-Leu-Pro-NH2 (peptide)
peptide: Nicotinoyl-[Phe(4-NH2)][Chg]RLP-NH2
SMILES: CC(C)C[C@H](NC(=O)[C@H](CCCNC(=N)N)NC(=O)[C@@H](NC(=O)[C@H](Cc1ccc(N)cc1)NC(=O)c1cccnc1)C1CCCCC1)C(=O)N1CCC[C@H]1C(N)=O
Ki [1]: < 100 µM

XIRLP (Y1=Y(3,5-I); C-term NH2) [Y(3,5-I)-I-R-L-P-NH2]
Ki [2]: < 100 µM

B3: (2-quinolinoyl)-Phe(NH2)-Chg-Arg-Leu-Pro-NH2 (peptide)
peptide: Quinaldoyl-F[Chg]RLP-NH2
modifications: not fully specified (residue 1); printed as (2-quinolinoyl)-Phe(NH2)-Chg-Arg-Leu-Pro-NH2
Ki [1]: < 100 µM

{2‑pyridonyl}-[Phe(4-NH2)][Chg]RLP-NH2 [(2-pyridonyl)Phe(pNH2)Chg-Arg-Leu-Pro-NH2]
Ki [1]: < 100 µM

XIRLP (N-term Ac; N-(Cyclopropyl-CH2) on Y1; Y1=Y(SO3H); C-term NH2) [Ac-(Cyclopropyl-CH2)Y(SO3H)-I-R-L-P-NH2]
Ki [2]: < 100 µM

Ac-[dpAph]IRLP-NH2 [Ac-D-pAph-Ile-Arg-Leu-Pro-NH2]
Ki [1]: < 100 µM

B4: (2-naphythl-CH2)Phe(pNH2)-Chg-Arg-Leu-Pro-NH2 (peptide)
peptide: {2‑naphthylmethyl}-[Phe(4-NH2)][Chg]RLP-NH2
SMILES: CC(C)C[C@H](NC(=O)[C@H](CCCNC(=N)N)NC(=O)[C@@H](NC(=O)[C@H](Cc1ccc(N)cc1)NCc1ccc2ccccc2c1)C1CCCCC1)C(=O)N1CCC[C@H]1C(N)=O
Ki [1]: < 100 µM

B5: (Benzoyl)-Phe(pNH2)-Chg-Arg-Leu-Pro-NH2 (peptide)
peptide: Bz-[Phe(4-NH2)][Chg]RLP-NH2
SMILES: CC(C)C[C@H](NC(=O)[C@H](CCCNC(=N)N)NC(=O)[C@@H](NC(=O)[C@H](Cc1ccc(N)cc1)NC(=O)c1ccccc1)C1CCCCC1)C(=O)N1CCC[C@H]1C(N)=O
notes: also called Bz-F(pNH2)-Chg-R-L-P-NH2
Ki [1]: < 100 µM

XIRLP (N-term Ac; N-(2-Me-nBu) on Y1; Y1=Y(SO3H); C-term NH2) [Ac-(2-Me-nBu)Y(SO3H)-I-R-L-P-NH2]
Ki [2]: < 100 µM

XIRLP (N-term Ac; N-(2-Me-Bzl) on Y1; C-term NH2) [Ac-(2-Me-Bzl)Y-I-R-L-P-NH2]
Ki [2]: < 100 µM

YLRFP-NH2 [Y-L-R-F-P-NH2]
Ki [2]: < 100 µM

XIRLP (N-term Ac; N-(2-CF3-Bzl) on Y1; C-term NH2) [Ac-(2-CF3-Bzl)Y-I-R-L-P-NH2]
Ki [2]: < 100 µM

XIRLP (N-(Chx-CH2) on Y1; C-term NH2) [(Chx-CH2)Y-I-R-L-P-NH2]
Ki [2]: < 100 µM

XIRLP (N-term Ac; N-(2,3-DiMe-nPentyl) on Y1; C-term NH2) [Ac-(2,3-DiMe-nPentyl)Y-I-R-L-P-NH2]
Ki [2]: < 100 µM

XIRLP (N-term Ac; N-(2,3-DiMe-nPentyl) on Y1; Y1=Y(SO3H); C-term NH2) [Ac-(2,3-DiMe-nPentyl)Y(SO3H)-I-R-L-P-NH2]
Ki [2]: < 100 µM

XIRLP (N-term Ac; N-(3,3-DiMe-nBu) on Y1; Y1=Y(SO3H); C-term NH2) [Ac-(3,3-DiMe-nBu)Y(SO3H)-I-R-L-P-NH2]
Ki [2]: < 100 µM

XIRLP (N-term Ac; N-(2Et-nBu) on Y1; C-term NH2) [Ac-(2Et-nBu)Y-I-R-L-P-NH2]
Ki [2]: < 100 µM

XIRLP (N-term Ac; N-(2-Me-Bzl) on Y1; Y1=Y(SO3H); C-term NH2) [Ac-(2-Me-Bzl)Y(SO3H)-I-R-L-P-NH2]
Ki [2]: < 100 µM

YRYPRDRN-NH2 [Y-R-Y-P-R-D-R-N-NH2]
Ki [2]: < 100 µM

Ac-[(iBu)Phe(4-CN)][Chg]RLP-NH2 [Ac-(iBu)Phe(pCN)-Chg-Arg-Leu-Pro-NH2]
Ki [1]: < 100 µM

XIRLP (N-term Ac; N-(3,3-DiMe-nBu) on Y1; C-term NH2) [Ac-(3,3-DiMe-nBu)Y-I-R-L-P-NH2]
Ki [2]: < 100 µM

XIRLP (N-(3,3-DiMe-nBu) on Y1; C-term NH2) [(3,3-DiMe-nBu)Y-I-R-L-P-NH2]
Ki [2]: < 100 µM

B6: Ac-Phe(pNH2)-Chg-Arg-(Me)Leu-Pro-NH2 (peptide)
peptide: Ac-[Phe(4-NH2)][Chg]R[NMeL]P-NH2
SMILES: CC(=O)N[C@@H](Cc1ccc(N)cc1)C(=O)N[C@H](C(=O)N[C@@H](CCCNC(=N)N)C(=O)N(C)[C@@H](CC(C)C)C(=O)N1CCC[C@H]1C(N)=O)C1CCCCC1
Ki [1]: < 100 µM
